{
  "source": "patent US20160008398A1",
  "about": "“CONSTITUTIVE EXPRESSION OF COSTIMULATORY LIGANDS ON ADOPTIVELY TRANSFERRED T LYMPHOCYTES” (Memorial Sloan-Kettering Cancer Center, published 2016)",
  "molecular_target": "CD28 (human, UniProt P10747)",
  "test": "cell-based or functional assay",
  "data": [
    {"binder": "CD80 (ligand) VIHVTKEVKEVATLSCGHNVSVEELAQTRIYWQKEKKMVLTMMSGDMNIWPEYKNRTIFDITNNLSIVILALRPSDEGTYECVVLKYEKDAFKREHLAEVTLSVKADFPTPSISDFEIPTSNIRRIICSTSGGFPEPHLSWLENGEELNAINTTVSQDPETELYAVSSKLDFNMTTNHSFMCLIKYGHLRVNQTFNWNTTKQEHFPDNLLPSWAITLISVNGIFVICCLTYCFAPRCRERRRNERLRRESVRPV", "values": [
      {"measurement": "Granzyme B recruitment to T-cell tumor cell junctions", "result": 2.2, "unit": "fold"},
      {"measurement": "NF-kB-luciferase signal in single OKT3-stimulated Jurkat T cells", "result": 3.8, "unit": "fold"},
      {"measurement": "expansion of CAR-transduced T cells stimulated weekly on LNCaP tumor monolayers", "result": "~2", "unit": "fold"},
      {"measurement": "expansion of CMV pp65-specific T cells restimulated with HLA-A*0201^+ pp65-transduced Caco-2 cells", "result": 209, "unit": "fold"},
      {"measurement": "expansion of Pz1^+ T cells cocultured weekly with LNCaP tumor monolayers", "result": 1040, "unit": "fold enrichment"},
      {"measurement": "expansion of T cells stimulated weekly with plate-bound OKT3", "result": "237 fold greater proliferation"},
      {"measurement": "in vivo expansion of Pz1^+ T cells in PC3-PSMA tumor bearing mice (bioluminescence)", "result": 41, "unit": "fold higher photon count"}
    ]}
  ]
}
